# Measurements from patent US20240190985A1 (NEW YORK UNIVERSITY, published 2024).
# T1: CD99 peptide containing the 10A1 epitope, Ac-GENDDPRPPNPPKPM-amide (human)
# T1 construct: Synthetic peptide (New England Peptide); also called residues 62-76
# T1 peptide: Ac-GENDDPRPPNPPKPM-NH2
# B1: CD99 endogenously expressed on cells (Jurkat, KOPT-K1) (receptor)
# chain: DGGFDLSDALPDNENKKPTAIPKKPSAGDDFDLGDAVVDGENDDPRPPNPPKPMPNPNPNHPSSSGSFSDADLADGVSGGEGKGGSDGGGSHRKEGEEADAPGVIPGIVGAVVVAVAGAISSFIAYQKKKLCFKENAEQGEVDMESHRNANAEPAVQRTLLEK
# modifications: O-linked glycosylation (natural, on cells)
# notes: also called endogenously expressed CD99; CD99 on cells
# Tests used:
# [1] = biological target: T1, CD99 peptide containing the 10A1 …; test: X-ray crystal structure of the complex, 3.10 Å
# [2] = biological target: B1; test: flow cytometry titration on KOPT-K1 cells, anti-Fab secondary antibody (FIG. 3B)
# [3] = biological target: B1; test: cell-based or functional assay
# [4] = biological target: T2, tetravalent SAV-10A1 Fab complex (A4 streptavidin with biotinylated 10A1 Fab) (UniProt P22629 37-163, limits assumed, biotin on the C-terminal AviTag of the Fab heavy chain); test: flow cytometry titration on KOPT-K1 cells (FIG. 4C)
# T2 construct: also called tetravalent SAV-Fab complex; not shown: N-terminal 6xHis tag
# T2 sequence (P22629 37-163 limits assumed, one chain of several): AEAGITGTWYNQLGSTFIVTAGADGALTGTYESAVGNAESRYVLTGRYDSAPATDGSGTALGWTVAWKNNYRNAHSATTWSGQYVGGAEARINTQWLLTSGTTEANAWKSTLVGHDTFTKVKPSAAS
binder,measurement,setting,value
"10A1 Fab (Fab, V domains shown, Fab made in E. coli by attaching VH and VL to CH1 and CL; also called 10A1 in the Fab format; monovalent 10A1) VH: QVQLQQSGPVLVKPSQTLSLTCAISGDSISSDTTAWSWIRRSPSRGLEWLGWTYYRSKWFNYYAVSVKGRVTINPDTSKNQFSLQLSSVTPEDTAVYYCARGNGNGGMDVWGQGTTVTVSS VL: SYVLTQPASASVSPGQTARITCSGDALPKQYAYWYQQKPGQAPVLVIFKDSERPSGVPERFSGSSSGTTVTLTISGAQAEDEADYYCQSVDNSGFYQVFGGGTQLTVL",binding result,[1],binds
"10A1 IgG-HCscFv (antibody, Human IgG1 LALA-PG with the 10A1 scFv appended by a linker to the C-terminus of each heavy chain; Valency of four; also called 10A1 HCscFv; 10A1 HC-scFv) heavy: QVQLQQSGPVLVKPSQTLSLTCAISGDSISSDTTAWSWIRRSPSRGLEWLGWTYYRSKWFNYYAVSVKGRVTINPDTSKNQFSLQLSSVTPEDTAVYYCARGNGNGGMDVWGQGTTVTVSSASTKGPSVFPLAPSSKSTSGGTAALGCLVKDYFPEPVTVSWNSGALTSGVHTFPAVLQSSGLYSLSSVVTVPSSSLGTQTYICNVNHKPSNTKVDKKVEPKSCDKTHTCPPCPAPEAAGGPSVFLFPPKPKDTLMISRTPEVTCVVVDVSHEDPEVKFNWYVDGVEVHNAKTKPREEQYNSTYRVVSVLTVLHQDWLNGKEYKCKVSNKALGAPIEKTISKAKGQPREPQVYTLPPSREEMTKNQVSLTCLVKGFYPSDIAVEWESNGQPENNYKTTPPVLDSDGSFFLYSKLTVDKSRWQQGNVFSCSVMHEALHNHYTQKSLSLSPGKSSGSSGSSSSSGSSSQVQLQQSGPVLVKPSQTLSLTCAISGDSISSDTTAWSWIRRSPSRGLEWLGWTYYRSKWFNYYAVSVKGRVTINPDTSKNQFSLQLSSVTPEDTAVYYCARGNGNGGMDVWGQGTTVTVSSGSSSSSSGSSGSSSSSYVLTQPASASVSPGQTARITCSGDALPKQYAYWYQQKPGQAPVLVIFKDSERPSGVPERFSGSSSGTTVTLTISGAQAEDEADYYCQSVDNSGFYQVFGGGTQLTVL light: SYVLTQPASASVSPGQTARITCSGDALPKQYAYWYQQKPGQAPVLVIFKDSERPSGVPERFSGSSSGTTVTLTISGAQAEDEADYYCQSVDNSGFYQVFGGGTQLTVLRTVAAPSVFIFPPSDEQLKSGTASVVCLLNNFYPREAKVQWKVDNALQSGNSQESVTEQDSKDSTYSLSSTLTLSKADYEKHKVYACEVTHQGLSSPVTKSFNRGEC",maximum fluorescence intensity relative to the bivalent and dodecavalent antibodies,[2],~0.5 fold
same,"IC50 of cytotoxicity (Annexin V, KOPT-K1 cells, 18 hours)",[3],82 nM Fv
B1,binding result,[4],binds
